A short description of the data set: self-splicing fitness, log relative to wild type (ln ratio); higher = more splicing; Tetrahymena group I intron in knt gene, E. coli kanamycin selection, DiMSum; sequences stand for … in CUCUCU…GGAGGGAAAAGUUAUCAGGCAUGCACCUGGUAGCUAGUCUUUAAACCAAUAGAUUGCAUCGGUUUAAAAGGCAAGACCGUCAAAUUGCGGGAAAGGGGUCAACAGCCGUUCAGUACCAAGUCUCAGGGGAAACUUUGAGAUGGCCUUGCAAAGGGUAUGGUAAUAAGCUGACGGACAUGGUCCUAACCACGCAGCCAAGUCCUAAGUCAACAGAUCUUCUGUUGAUAUGGAUGCAGUUCACAGACUAAAUGUCGGUCGGGGAAGAUGUAUUCUUCUCAUAAGAUAUAGUCGGACCUCUCCUUAAUGGGAGCUAGCGGAUGAAGUGAUGCAACACUGGAGCCGCUGGGAACUAAUUUGUAUGCGAAAGUAUAUUGAUUAGUUUUGGAGUACUCGUGGUCG
The procedure, abridged:
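Six replicate transformations of E. coli BL21(DE3) with a pET-22b(+) library were grown overnight at 37°C or 30°C. The library randomised all eight P1ex-region intron nucleotides, the intron lying in the knt kanamycin-resistance gene, and plates were LB agar with or without 25 μg/mL kanamycin plus 100 μg/mL carbenicillin, 50 μM IPTG and 0.2% rhamnose. Pooled colonies were amplicon-sequenced on an Illumina HiSeq 2500, and fitness is the DiMSum error-weighted combination of wild-type-normalised replicate fold changes, kanamycin versus none.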

± gives the uncertainty stated by the source.

The text below walks through data of the supplement of paper PMC7877785.

For the sequence CCAGAGCAAUAUUACGUAGC, the “self-splicing fitness (ln)” value was -3.23 ± 0.19 (30 °C) and -2.38 ± 0.26 (37 °C).
On the same counts, the results for CUAGAGCAAUAUUACGGUAA are -3.52 ± 0.29 and -1.5 ± 0.16.
AGAGAGCAAUAUUACGCCAG: the “self-splicing fitness (ln)” value by setting is: (30 °C) -3.51 ± 0.35; (37 °C) -2.94 ± 0.38.
Turning to UCUGAGCAAUAUUACGUCAC, the “self-splicing fitness (ln)” value (37 °C) is -2.32 ± 0.45.
On to UGACAGCAAUAUUACGUAAG, for which the “self-splicing fitness (ln)” value reads like this: (30 °C) -1.2 ± 0.064; (37 °C) -0.489 ± 0.067.
The like results for GCCCAGCAAUAUUACGUAAA were, in that order, -0.596 ± 0.06 and -0.718 ± 0.097.
As for GUCUAGCAAUAUUACGGCGG, the “self-splicing fitness (ln)” value was -2.66 ± 0.42 (30 °C) and -2.32 ± 0.4 (37 °C).
The like results for UAGGAGCAAUAUUACGUAGG were, in that order, -3.28 ± 0.2 and -1.15 ± 0.18.
The like results for AUCGAGCAAUAUUACGGUGC were, in that order, -2.54 ± 0.16 and -3.15 ± 0.43.
The like results for ACCCAGCAAUAUUACGUGCC were, in that order, -1.98 ± 0.08 and -0.963 ± 0.1.
For the sequence AUGAAGCAAUAUUACGGGAA, the “self-splicing fitness (ln)” value (30 °C) was -1.83 ± 0.11 and the “self-splicing fitness (ln)” value (37 °C) is -0.953 ± 0.14.
Take UGUAAGCAAUAUUACGAGUG: the “self-splicing fitness (ln)” value reads like this: (30 °C) -2.02 ± 0.13; (37 °C) -0.484 ± 0.14.
Turning to UCUAAGCAAUAUUACGUGUA, the “self-splicing fitness (ln)” value is, setting by setting: (30 °C) -1.6 ± 0.12; (37 °C) -0.704 ± 0.1.
On the same counts, the results for AUAAAGCAAUAUUACGCUUA are -1.27 ± 0.1 and 0.137 ± 0.12.
The like results for ACGAAGCAAUAUUACGUACC were, in that order, -1.3 ± 0.14 and -1.17 ± 0.19.
The like results for GUACAGCAAUAUUACGCCCA were, in that order, -1.14 ± 0.4 and 0.32 ± 0.36.
On to CGAGAGCAAUAUUACGCUAC, for which the “self-splicing fitness (ln)” value (37 °C) was -2.11 ± 0.4.
For AAACAGCAAUAUUACGCACA, the “self-splicing fitness (ln)” value was -0.828 ± 0.085 (30 °C) and 0.269 ± 0.1 (37 °C).
Regarding CUGGAGCAAUAUUACGCUGG, the “self-splicing fitness (ln)” value (37 °C) is -2.98 ± 0.35.
Regarding UACGAGCAAUAUUACGGGUA, the “self-splicing fitness (ln)” value was -1.64 ± 0.14 (30 °C) and -1.43 ± 0.14 (37 °C).
On the same counts, the results for GGAAAGCAAUAUUACGUAGU are -2.97 ± 0.11 and -1.23 ± 0.088.
The like results for ACAAAGCAAUAUUACGUAUG were, in that order, -3.01 ± 0.12 and -2.13 ± 0.15.
In the case of UGUUAGCAAUAUUACGCAGC, the “self-splicing fitness (ln)” value (37 °C) is -2.47 ± 0.38.
As to GGACAGCAAUAUUACGACAC, the “self-splicing fitness (ln)” value (30 °C) is -0.596 ± 0.1 and the “self-splicing fitness (ln)” value (37 °C) came out at 0.167 ± 0.13.
Turning to UAGAAGCAAUAUUACGCCCC, the “self-splicing fitness (ln)” value reads like this: (30 °C) -3.03 ± 0.2; (37 °C) -1.63 ± 0.23.
In the case of AGGUAGCAAUAUUACGGUAA, the “self-splicing fitness (ln)” value (30 °C) was -2.123 ± 0.021 and the “self-splicing fitness (ln)” value (37 °C) was -1.2 ± 0.034.
On the same counts, the results for GCCAAGCAAUAUUACGGCGA are -1.18 ± 0.093 and -0.756 ± 0.095.
The like results for GGCAAGCAAUAUUACGACAC were, in that order, -0.649 ± 0.15 and 0.129 ± 0.28.
For UAGUAGCAAUAUUACGCAUC, the “self-splicing fitness (ln)” value (30 °C) is -2.64 ± 0.28.
As for GUAGAGCAAUAUUACGACUG, the “self-splicing fitness (ln)” value (30 °C) is -1.22 ± 0.15 and the “self-splicing fitness (ln)” value (37 °C) is -1.12 ± 0.24.
On the same counts, the results for GUACAGCAAUAUUACGCUGC are -4.33 ± 0.26 and -2.74 ± 0.3.
On the same counts, the results for UACAAGCAAUAUUACGCCGA are -1.29 ± 0.1 and -0.999 ± 0.11.
On the same counts, the results for UUGCAGCAAUAUUACGGCCG are -1.21 ± 0.096 and -0.459 ± 0.12.
Regarding CACAAGCAAUAUUACGCGCA, the “self-splicing fitness (ln)” value was -0.607 ± 0.095 (30 °C) and -1.28 ± 0.1 (37 °C).
The like results for CUGCAGCAAUAUUACGUCCU were, in that order, -3.82 ± 0.37 and -1.31 ± 0.31.
In the case of UAAGAGCAAUAUUACGCGGG, the “self-splicing fitness (ln)” value (30 °C) was -3.49 ± 0.37 and the “self-splicing fitness (ln)” value (37 °C) was -3.91 ± 0.36.
On the same counts, the results for AGCAAGCAAUAUUACGCUCC are -3.78 ± 0.4 and -1.58 ± 0.39.
Take CUAAAGCAAUAUUACGUUAU: the “self-splicing fitness (ln)” value (30 °C) is -4.11 ± 0.21 and the “self-splicing fitness (ln)” value (37 °C) is -3.34 ± 0.26.
For the sequence GGAGAGCAAUAUUACGUGAU, the “self-splicing fitness (ln)” value (30 °C) was -3.33 ± 0.24 and the “self-splicing fitness (ln)” value (37 °C) is -1.75 ± 0.31.
On the same counts, the results for AUCAAGCAAUAUUACGUUCG are -1.5 ± 0.086 and -0.132 ± 0.091.
The like results for GACGAGCAAUAUUACGCAGU were, in that order, -3.48 ± 0.28 and -2.21 ± 0.23.
Take AUUGAGCAAUAUUACGCAAA: the “self-splicing fitness (ln)” value (30 °C) was -3.02 ± 0.29.
Turning to UUGUAGCAAUAUUACGAUCG, the “self-splicing fitness (ln)” value reads like this: (30 °C) -1.06 ± 0.14; (37 °C) 0.103 ± 0.23.
On to UUCGAGCAAUAUUACGUUAA, for which the “self-splicing fitness (ln)” value (30 °C) is -2.16 ± 0.31 and the “self-splicing fitness (ln)” value (37 °C) is -1.82 ± 0.21.
For UUGCAGCAAUAUUACGAGGA, the “self-splicing fitness (ln)” value was -2.08 ± 0.18 (30 °C) and -0.954 ± 0.14 (37 °C).
For the sequence UUGGAGCAAUAUUACGGCAU, for the setting “37 °C”, the “self-splicing fitness (ln)” value is -1.76 ± 0.24.
Regarding GAAAAGCAAUAUUACGCCUG, the “self-splicing fitness (ln)” value by setting is: (30 °C) -0.929 ± 0.081; (37 °C) -0.273 ± 0.11.
Consider CCGCAGCAAUAUUACGGGGG, for which the “self-splicing fitness (ln)” value by setting is: (30 °C) -3.71 ± 0.18; (37 °C) -3.2 ± 0.3.
On the same counts, the results for GACAAGCAAUAUUACGCGAC are -1.52 ± 0.15 and -1.63 ± 0.19.
On the same counts, the results for UUUAAGCAAUAUUACGUAGG are -0.802 ± 0.058 and -0.287 ± 0.086.
The like results for UCAAAGCAAUAUUACGUGUG were, in that order, -1.51 ± 0.058 and -0.749 ± 0.066.
In the case of GGCAAGCAAUAUUACGGAUA, the “self-splicing fitness (ln)” value reads like this: (30 °C) -0.889 ± 0.1; (37 °C) -0.586 ± 0.097.
With CAUUAGCAAUAUUACGUAGU, the “self-splicing fitness (ln)” value is, setting by setting: (30 °C) -3.66 ± 0.17; (37 °C) -1.84 ± 0.17.
As to CCUUAGCAAUAUUACGAGAC, the “self-splicing fitness (ln)” value (37 °C) was -1.83 ± 0.25.
Regarding GCCAAGCAAUAUUACGAGCU, the “self-splicing fitness (ln)” value was -1.35 ± 0.12 (30 °C) and -1.46 ± 0.15 (37 °C).
On the same counts, the results for AUAAAGCAAUAUUACGUCAA are -1.54 ± 0.088 and -0.873 ± 0.094.
On the same counts, the results for CUGCAGCAAUAUUACGCCAU are -3.9 ± 0.2 and -3.42 ± 0.17.
Turning to UGGUAGCAAUAUUACGCUGA, the “self-splicing fitness (ln)” value (30 °C) is -1.07 ± 0.15 and the “self-splicing fitness (ln)” value (37 °C) is -0.679 ± 0.11.
On the same counts, the results for GUUCAGCAAUAUUACGAAUU are -1.52 ± 0.14 and -1.14 ± 0.14.
The like results for CCUUAGCAAUAUUACGACUU were, in that order, -3.8 ± 0.35 and -2.73 ± 0.32.
The like results for CCGCAGCAAUAUUACGUUUU were, in that order, -3.13 ± 0.13 and -3.26 ± 0.2.
Consider GGGAAGCAAUAUUACGUCUG, for which the “self-splicing fitness (ln)” value reads like this: (30 °C) 0.292 ± 0.099; (37 °C) -0.174 ± 0.12.
On the same counts, the results for GCCUAGCAAUAUUACGCACU are -0.602 ± 0.083 and 0.143 ± 0.078.
The like results for UUAUAGCAAUAUUACGACCG were, in that order, -0.514 ± 0.16 and 0.446 ± 0.22.
On the same counts, the results for GUGUAGCAAUAUUACGAUGG are -2.91 ± 0.19 and -1.81 ± 0.18.
Consider AACCAGCAAUAUUACGCACA, for which the “self-splicing fitness (ln)” value by setting is: (30 °C) -0.335 ± 0.054; (37 °C) 0.326 ± 0.072.
For CGAAAGCAAUAUUACGGGCG, the “self-splicing fitness (ln)” value is -0.207 ± 0.098 (30 °C) and -0.157 ± 0.13 (37 °C).
In the case of CGAGAGCAAUAUUACGUCCU, the “self-splicing fitness (ln)” value (30 °C) is -2.98 ± 0.39.
As to CAUCAGCAAUAUUACGAACU, the “self-splicing fitness (ln)” value was -3.37 ± 0.21 (30 °C) and -0.499 ± 0.17 (37 °C).
For AGCUAGCAAUAUUACGGGGA, the “self-splicing fitness (ln)” value (30 °C) is -2.22 ± 0.17 and the “self-splicing fitness (ln)” value (37 °C) is -1.68 ± 0.14.
The like results for UCUCAGCAAUAUUACGGUAC were, in that order, -3.18 ± 0.35 and -2.52 ± 0.34.
On the same counts, the results for CCCAAGCAAUAUUACGUUUU are -3.95 ± 0.18 and -3.26 ± 0.2.
The like results for AAAAAGCAAUAUUACGCCAG were, in that order, -2.24 ± 0.14 and -2.24 ± 0.23.
Regarding AGACAGCAAUAUUACGUGAA, the “self-splicing fitness (ln)” value is, setting by setting: (30 °C) -2.03 ± 0.14; (37 °C) -0.982 ± 0.15.
For the sequence CCUGAGCAAUAUUACGGGUA, the “self-splicing fitness (ln)” value by setting is: (30 °C) -2.9 ± 0.27; (37 °C) -2.07 ± 0.31.
For the sequence GUGAAGCAAUAUUACGUACU, the “self-splicing fitness (ln)” value is, setting by setting: (30 °C) -1.14 ± 0.055; (37 °C) -0.0726 ± 0.07.
Turning to GCCCAGCAAUAUUACGUAUA, the “self-splicing fitness (ln)” value runs as follows: (30 °C) -2.1 ± 0.11; (37 °C) -1.33 ± 0.11.
On the same counts, the results for GCCAAGCAAUAUUACGGCCG are -1.48 ± 0.23 and -2.11 ± 0.46.
